Measured values: IntAct's records for PubMed 16229834

B1: PRKC apoptosis WT1 regulator protein (Rattus norvegicus (Rat)), Q62627 (parent)
chain: MATGGYRSSGSTTDFLEEWKAKREKMRAKQNPVGPGSSGGDPAAKSPAGPLAQTTAAGTSELNHGPAGAAAPAAPGPGALNCAHGSSALPRGAPGSRRPEDECPIAAGAAGAPASRGDEEEPDSAPEKGRSSGPSARKGKGQIEKRKLREKRRSTGVVNIPAAECLDEYEDDEAGQKERKREDAITQQNTIQNEAASLPDPGTSYLPQDPSRTVPGRYKSTISAPEEEILNRYPRTDRSGFSRHNRDTSAPANFASSSTLEKRIEDLEKEVLRERQENLRLTRLMQDKEEMIGKLKEEIDLLNRDLDDMEDENEQLKQENKTLLKVVGQLTR
partner: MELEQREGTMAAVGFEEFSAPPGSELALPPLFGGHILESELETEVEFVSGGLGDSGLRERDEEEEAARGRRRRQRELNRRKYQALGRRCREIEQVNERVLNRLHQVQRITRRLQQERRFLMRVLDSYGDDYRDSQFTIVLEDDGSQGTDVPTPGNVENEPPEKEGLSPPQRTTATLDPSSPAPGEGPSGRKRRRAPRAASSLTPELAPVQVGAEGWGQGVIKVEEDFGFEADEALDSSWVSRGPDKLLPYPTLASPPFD

Variants of: B1
Conditions: with tfpt_rat Tfpt

| effect of a mutation on the interaction | Variant |
| --- | --- |
| disrupting interaction | MATGGYRSSGSTTDFLEEWKAKREKMRAKQNPVGPGSSGGDPAAKSPAGPLAQTTAAGTSELNHGPAGAAAPAAPGPGALNCAHGSSALPRGAPGSRRPEDECPIAAGAAGAPASRGDEEEPDSAPEKGRSSGPSARKGKGQIEKRKLREKRRSTGVVNIPAAECLDEYEDDEAGQKERKREDAITQQNTIQNEAASLPDPGTSYLPQDPSRTVPGRYKSTISAPEEEILNRYPRTDRSGFSRHNRDTSAPANFASSSTLEKRIEDLEKEVLRERQENLRLTRLMQDKEEMIGKAKEEIDLLNRDLDDMEDENEQAKQENKTLLKVVGQATR [L295A;L316A;L330A] |
